Data published in patent publication US20260001928A1 (CORTERIA PHARMACEUTICALS, priority 2022, published 2026).
Values belong to the binder of their own block, whether it stands above or below them. *1 amine or outer side, *2 acyl side, *3 side chain or, on linkers, in order; H or OH if unused. Where no end group is shown, it is not given here. Side-chain parts run from the residue outwards. [ ]: non-standard residue; d: D form. The star is where a group is joined. C18 diacid = O=C(O)CCCCCCCCCCCCCCCCC(=O)*; C16 diacid = O=C(O)CCCCCCCCCCCCCCC(=O)*; γGlu = O=C(O)[C@H](CCC(=O)[*:2])N[*:1]; NMeI = CC[C@H](C)[C@H](NC)C(=O)O; Nva = CCC[C@H](N)C(=O)O; Abu = CC[C@H](N)C(=O)O; Pentanoyl = CCCCC(=O)*; AEEA = NCCOCCOCC(=O)O; Aib = CC(C)(N)C(=O)O

How the values were obtained:
[1] = target: human corticotropin-releasing factor 2a (CRF2a receptor) (human), Q13324; assay: cell-based or functional assay
CRF1R receptor = target: T1, CRF1R receptor (UniProt P34998 24-415, limits assumed); assay: cell-based or functional assay
T1 sequence (looked up): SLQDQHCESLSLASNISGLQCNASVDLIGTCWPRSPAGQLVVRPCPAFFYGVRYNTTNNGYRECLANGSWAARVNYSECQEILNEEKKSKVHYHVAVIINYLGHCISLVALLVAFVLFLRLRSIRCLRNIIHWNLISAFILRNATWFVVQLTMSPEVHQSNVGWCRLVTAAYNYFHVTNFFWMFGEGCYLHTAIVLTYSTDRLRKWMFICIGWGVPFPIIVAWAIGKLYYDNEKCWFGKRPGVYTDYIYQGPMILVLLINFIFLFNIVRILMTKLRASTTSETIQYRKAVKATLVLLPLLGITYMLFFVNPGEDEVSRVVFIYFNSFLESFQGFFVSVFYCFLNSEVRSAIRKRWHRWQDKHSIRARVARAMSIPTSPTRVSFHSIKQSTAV

Sequence of human corticotropin-releasing factor 2a (CRF2a receptor) (human), Q13324 (Q13324 20-411): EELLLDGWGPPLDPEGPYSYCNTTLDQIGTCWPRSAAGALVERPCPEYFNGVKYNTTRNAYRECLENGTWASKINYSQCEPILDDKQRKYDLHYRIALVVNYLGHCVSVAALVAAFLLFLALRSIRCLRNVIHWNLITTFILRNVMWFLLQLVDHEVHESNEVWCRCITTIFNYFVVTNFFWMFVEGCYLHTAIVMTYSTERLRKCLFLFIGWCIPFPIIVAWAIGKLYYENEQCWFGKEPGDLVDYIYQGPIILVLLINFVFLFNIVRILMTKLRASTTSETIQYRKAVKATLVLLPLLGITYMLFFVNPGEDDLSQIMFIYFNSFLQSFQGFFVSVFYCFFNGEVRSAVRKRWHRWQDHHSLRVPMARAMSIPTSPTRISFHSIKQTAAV

B1: SEQ ID NO 113 (peptide)
peptide: [NMeI]VLSLD[dV]PIKLK([AEEA-AEEA-γGlu-C18 diacid])KILLEQEKQKKQREQAETNAQILAQV-NH2
modifications: N-terminus assumed
SMILES: CC[C@H](C)[C@H](NC)C(=O)N[C@H](C(=O)N[C@@H](CC(C)C)C(=O)N[C@@H](CO)C(=O)N[C@@H](CC(C)C)C(=O)N[C@@H](CC(=O)O)C(=O)N[C@@H](C(=O)N1CCC[C@H]1C(=O)N[C@H](C(=O)N[C@@H](CCCCN)C(=O)N[C@@H](CC(C)C)C(=O)N[C@@H](CCCCNC(=O)COCCOCCNC(=O)COCCOCCNC(=O)CC[C@H](NC(=O)CCCCCCCCCCCCCCCCC(=O)O)C(=O)O)C(=O)N[C@@H](CCCCN)C(=O)N[C@H](C(=O)N[C@@H](CC(C)C)C(=O)N[C@@H](CC(C)C)C(=O)N[C@@H](CCC(=O)O)C(=O)N[C@@H](CCC(N)=O)C(=O)N[C@@H](CCC(=O)O)C(=O)N[C@@H](CCCCN)C(=O)N[C@@H](CCC(N)=O)C(=O)N[C@@H](CCCCN)C(=O)N[C@@H](CCCCN)C(=O)N[C@@H](CCC(N)=O)C(=O)N[C@@H](CCCNC(=N)N)C(=O)N[C@@H](CCC(=O)O)C(=O)N[C@@H](CCC(N)=O)C(=O)N[C@@H](C)C(=O)N[C@@H](CCC(=O)O)C(=O)N[C@H](C(=O)N[C@@H](CC(N)=O)C(=O)N[C@@H](C)C(=O)N[C@@H](CCC(N)=O)C(=O)N[C@H](C(=O)N[C@@H](CC(C)C)C(=O)N[C@@H](C)C(=O)N[C@@H](CCC(N)=O)C(=O)N[C@H](C(N)=O)C(C)C)[C@@H](C)CC)[C@@H](C)O)[C@@H](C)CC)[C@@H](C)CC)C(C)C)C(C)C
EC50 [nM] (cAMP) [1]: 0.35 nM
Emax (% I) (CRF1R receptor): 6%

B4: SEQ ID NO 100 (peptide)
peptide: Ac-IVLSLD[dV]PIKLK([AEEA-AEEA-γGlu-C18 diacid])KILLEQEKQKKQREQAETNAQILAQV-NH2
SMILES: CC[C@H](C)[C@H](NC(C)=O)C(=O)N[C@H](C(=O)N[C@@H](CC(C)C)C(=O)N[C@@H](CO)C(=O)N[C@@H](CC(C)C)C(=O)N[C@@H](CC(=O)O)C(=O)N[C@@H](C(=O)N1CCC[C@H]1C(=O)N[C@H](C(=O)N[C@@H](CCCCN)C(=O)N[C@@H](CC(C)C)C(=O)N[C@@H](CCCCNC(=O)COCCOCCNC(=O)COCCOCCNC(=O)CC[C@H](NC(=O)CCCCCCCCCCCCCCCCC(=O)O)C(=O)O)C(=O)N[C@@H](CCCCN)C(=O)N[C@H](C(=O)N[C@@H](CC(C)C)C(=O)N[C@@H](CC(C)C)C(=O)N[C@@H](CCC(=O)O)C(=O)N[C@@H](CCC(N)=O)C(=O)N[C@@H](CCC(=O)O)C(=O)N[C@@H](CCCCN)C(=O)N[C@@H](CCC(N)=O)C(=O)N[C@@H](CCCCN)C(=O)N[C@@H](CCCCN)C(=O)N[C@@H](CCC(N)=O)C(=O)N[C@@H](CCCNC(=N)N)C(=O)N[C@@H](CCC(=O)O)C(=O)N[C@@H](CCC(N)=O)C(=O)N[C@@H](C)C(=O)N[C@@H](CCC(=O)O)C(=O)N[C@H](C(=O)N[C@@H](CC(N)=O)C(=O)N[C@@H](C)C(=O)N[C@@H](CCC(N)=O)C(=O)N[C@H](C(=O)N[C@@H](CC(C)C)C(=O)N[C@@H](C)C(=O)N[C@@H](CCC(N)=O)C(=O)N[C@H](C(N)=O)C(C)C)[C@@H](C)CC)[C@@H](C)O)[C@@H](C)CC)[C@@H](C)CC)C(C)C)C(C)C
EC50 [nM] (cAMP) [1]: 0.41 nM
Emax (% I) (CRF1R receptor): 8%

B5: SEQ ID NO 45 (peptide)
peptide: Ac-VLSLD[dV]PIKLK([γGlu-C16 diacid])KILLEQEKQKKQREQAETN[Aib]QILAQV-NH2
SMILES: CC[C@H](C)[C@H](NC(=O)[C@H](CCC(N)=O)NC(=O)C(C)(C)NC(=O)[C@H](CC(N)=O)NC(=O)[C@@H](NC(=O)[C@H](CCC(=O)O)NC(=O)[C@H](C)NC(=O)[C@H](CCC(N)=O)NC(=O)[C@H](CCC(=O)O)NC(=O)[C@H](CCCNC(=N)N)NC(=O)[C@H](CCC(N)=O)NC(=O)[C@H](CCCCN)NC(=O)[C@H](CCCCN)NC(=O)[C@H](CCC(N)=O)NC(=O)[C@H](CCCCN)NC(=O)[C@H](CCC(=O)O)NC(=O)[C@H](CCC(N)=O)NC(=O)[C@H](CCC(=O)O)NC(=O)[C@H](CC(C)C)NC(=O)[C@H](CC(C)C)NC(=O)[C@@H](NC(=O)[C@H](CCCCN)NC(=O)[C@H](CCCCNC(=O)CC[C@H](NC(=O)CCCCCCCCCCCCCCC(=O)O)C(=O)O)NC(=O)[C@H](CC(C)C)NC(=O)[C@H](CCCCN)NC(=O)[C@@H](NC(=O)[C@@H]1CCCN1C(=O)[C@H](NC(=O)[C@H](CC(=O)O)NC(=O)[C@H](CC(C)C)NC(=O)[C@H](CO)NC(=O)[C@H](CC(C)C)NC(=O)[C@@H](NC(C)=O)C(C)C)C(C)C)[C@@H](C)CC)[C@@H](C)CC)[C@@H](C)O)C(=O)N[C@@H](CC(C)C)C(=O)N[C@@H](C)C(=O)N[C@@H](CCC(N)=O)C(=O)N[C@H](C(N)=O)C(C)C
EC50 [nM] (cAMP) [1]: 0.96 nM
Emax (% I) (CRF1R receptor): 5%

More lines, now with the values ahead:

EC50 [nM] (cAMP) [1]: 0.67 nM
Emax (% I) (CRF1R receptor): 5%
B2: SEQ ID NO 122 (peptide)
peptide: Pentanoyl-VLSLD[dV]PIKLK([AEEA-AEEA-γGlu-C18 diacid])KILLEQEKQKKQREQAETNAQILAQV-NH2
SMILES: CCCCC(=O)N[C@H](C(=O)N[C@@H](CC(C)C)C(=O)N[C@@H](CO)C(=O)N[C@@H](CC(C)C)C(=O)N[C@@H](CC(=O)O)C(=O)N[C@@H](C(=O)N1CCC[C@H]1C(=O)N[C@H](C(=O)N[C@@H](CCCCN)C(=O)N[C@@H](CC(C)C)C(=O)N[C@@H](CCCCNC(=O)COCCOCCNC(=O)COCCOCCNC(=O)CC[C@H](NC(=O)CCCCCCCCCCCCCCCCC(=O)O)C(=O)O)C(=O)N[C@@H](CCCCN)C(=O)N[C@H](C(=O)N[C@@H](CC(C)C)C(=O)N[C@@H](CC(C)C)C(=O)N[C@@H](CCC(=O)O)C(=O)N[C@@H](CCC(N)=O)C(=O)N[C@@H](CCC(=O)O)C(=O)N[C@@H](CCCCN)C(=O)N[C@@H](CCC(N)=O)C(=O)N[C@@H](CCCCN)C(=O)N[C@@H](CCCCN)C(=O)N[C@@H](CCC(N)=O)C(=O)N[C@@H](CCCNC(=N)N)C(=O)N[C@@H](CCC(=O)O)C(=O)N[C@@H](CCC(N)=O)C(=O)N[C@@H](C)C(=O)N[C@@H](CCC(=O)O)C(=O)N[C@H](C(=O)N[C@@H](CC(N)=O)C(=O)N[C@@H](C)C(=O)N[C@@H](CCC(N)=O)C(=O)N[C@H](C(=O)N[C@@H](CC(C)C)C(=O)N[C@@H](C)C(=O)N[C@@H](CCC(N)=O)C(=O)N[C@H](C(N)=O)C(C)C)[C@@H](C)CC)[C@@H](C)O)[C@@H](C)CC)[C@@H](C)CC)C(C)C)C(C)C

EC50 [nM] (cAMP) [1]: 0.47 nM
Emax (% I) (CRF1R receptor): 5%
B3: SEQ ID NO 104 (peptide)
peptide: Ac-IVLSLD[dV]PIKLK([AEEA-AEEA-γGlu-C18 diacid])KILLEQEKQKKQREQAETN[Abu]QILAQV-NH2
SMILES: CC[C@H](NC(=O)[C@H](CC(N)=O)NC(=O)[C@@H](NC(=O)[C@H](CCC(=O)O)NC(=O)[C@H](C)NC(=O)[C@H](CCC(N)=O)NC(=O)[C@H](CCC(=O)O)NC(=O)[C@H](CCCNC(=N)N)NC(=O)[C@H](CCC(N)=O)NC(=O)[C@H](CCCCN)NC(=O)[C@H](CCCCN)NC(=O)[C@H](CCC(N)=O)NC(=O)[C@H](CCCCN)NC(=O)[C@H](CCC(=O)O)NC(=O)[C@H](CCC(N)=O)NC(=O)[C@H](CCC(=O)O)NC(=O)[C@H](CC(C)C)NC(=O)[C@H](CC(C)C)NC(=O)[C@@H](NC(=O)[C@H](CCCCN)NC(=O)[C@H](CCCCNC(=O)COCCOCCNC(=O)COCCOCCNC(=O)CC[C@H](NC(=O)CCCCCCCCCCCCCCCCC(=O)O)C(=O)O)NC(=O)[C@H](CC(C)C)NC(=O)[C@H](CCCCN)NC(=O)[C@@H](NC(=O)[C@@H]1CCCN1C(=O)[C@H](NC(=O)[C@H](CC(=O)O)NC(=O)[C@H](CC(C)C)NC(=O)[C@H](CO)NC(=O)[C@H](CC(C)C)NC(=O)[C@@H](NC(=O)[C@@H](NC(C)=O)[C@@H](C)CC)C(C)C)C(C)C)[C@@H](C)CC)[C@@H](C)CC)[C@@H](C)O)C(=O)N[C@@H](CCC(N)=O)C(=O)N[C@H](C(=O)N[C@@H](CC(C)C)C(=O)N[C@@H](C)C(=O)N[C@@H](CCC(N)=O)C(=O)N[C@H](C(N)=O)C(C)C)[C@@H](C)CC

EC50 [nM] (cAMP) [1]: 0.87 nM
Emax (% I) (CRF1R receptor): 10%
B6: SEQ ID NO 105 (peptide)
peptide: Ac-IVLSLD[dV]PIKLK([AEEA-AEEA-γGlu-C18 diacid])KILLEQEKQKKQREQAETN[Nva]QILAQV-NH2
SMILES: CCC[C@H](NC(=O)[C@H](CC(N)=O)NC(=O)[C@@H](NC(=O)[C@H](CCC(=O)O)NC(=O)[C@H](C)NC(=O)[C@H](CCC(N)=O)NC(=O)[C@H](CCC(=O)O)NC(=O)[C@H](CCCNC(=N)N)NC(=O)[C@H](CCC(N)=O)NC(=O)[C@H](CCCCN)NC(=O)[C@H](CCCCN)NC(=O)[C@H](CCC(N)=O)NC(=O)[C@H](CCCCN)NC(=O)[C@H](CCC(=O)O)NC(=O)[C@H](CCC(N)=O)NC(=O)[C@H](CCC(=O)O)NC(=O)[C@H](CC(C)C)NC(=O)[C@H](CC(C)C)NC(=O)[C@@H](NC(=O)[C@H](CCCCN)NC(=O)[C@H](CCCCNC(=O)COCCOCCNC(=O)COCCOCCNC(=O)CC[C@H](NC(=O)CCCCCCCCCCCCCCCCC(=O)O)C(=O)O)NC(=O)[C@H](CC(C)C)NC(=O)[C@H](CCCCN)NC(=O)[C@@H](NC(=O)[C@@H]1CCCN1C(=O)[C@H](NC(=O)[C@H](CC(=O)O)NC(=O)[C@H](CC(C)C)NC(=O)[C@H](CO)NC(=O)[C@H](CC(C)C)NC(=O)[C@@H](NC(=O)[C@@H](NC(C)=O)[C@@H](C)CC)C(C)C)C(C)C)[C@@H](C)CC)[C@@H](C)CC)[C@@H](C)O)C(=O)N[C@@H](CCC(N)=O)C(=O)N[C@H](C(=O)N[C@@H](CC(C)C)C(=O)N[C@@H](C)C(=O)N[C@@H](CCC(N)=O)C(=O)N[C@H](C(N)=O)C(C)C)[C@@H](C)CC
